Data: IntAct's records for PubMed 26418745

B1: ALK tyrosine kinase receptor (Homo sapiens), Q9UM73 (parent)
chain: MGAIGLLWLLPLLLSTAAVGSGMGTGQRAGSPAAGPPLQPREPLSYSRLQRKSLAVDFVVPSLFRVYARDLLLPPSSSELKAGRPEARGSLALDCAPLLRLLGPAPGVSWTAGSPAPAEARTLSRVLKGGSVRKLRRAKQLVLELGEEAILEGCVGPPGEAAVGLLQFNLSELFSWWIRQGEGRLRIRLMPEKKASEVGREGRLSAAIRASQPRLLFQIFGTGHSSLESPTNMPSPSPDYFTWNLTWIMKDSFPFLSHRSRYGLECSFDFPCELEYSPPLHDLRNQSWSWRRIPSEEASQMDLLDGPGAERSKEMPRGSFLLLNTSADSKHTILSPWMRSSSEHCTLAVSVHRHLQPSGRYIAQLLPHNEAAREILLMPTPGKHGWTVLQGRIGRPDNPFRVALEYISSGNRSLSAVDFFALKNCSEGTSPGSKMALQSSFTCWNGTVLQLGQACDFHQDCAQGEDESQMCRKLPVGFYCNFEDGFCGWTQGTLSPHTPQWQVRTLKDARFQDHQDHALLLSTTDVPASESATVTSATFPAPIKSSPCELRMSWLIRGVLRGNVSLVLVENKTGKEQGRMVWHVAAYEGLSLWQWMVLPLLDVSDRFWLQMVAWWGQGSRAIVAFDNISISLDCYLTISGEDKILQNTAPKSRNLFERNPNKELKPGENSPRQTPIFDPTVHWLFTTCGASGPHGPTQAQCNNAYQNSNLSVEVGSEGPLKGIQIWKVPATDTYSISGYGAAGGKGGKNTMMRSHGVSVLGIFNLEKDDMLYILVGQQGEDACPSTNQLIQKVCIGENNVIEEEIRVNRSVHEWAGGGGGGGGATYVFKMKDGVPVPLIIAAGGGGRAYGAKTDTFHPERLENNSSVLGLNGNSGAAGGGGGWNDNTSLLWAGKSLQEGATGGHSCPQAMKKWGWETRGGFGGGGGGCSSGGGGGGYIGGNAASNNDPEMDGEDGVSFISPLGILYTPALKVMEGHGEVNIKHYLNCSHCEVDECHMDPESHKVICFCDHGTVLAEDGVSCIVSPTPEPHLPLSLILSVVTSALVAALVLAFSGIMIVYRRKHQELQAMQMELQSPEYKLSKLRTSTIMTDYNPNYCFAGKTSSISDLKEVPRKNITLIRGLGHGAFGEVYEGQVSGMPNDPSPLQVAVKTLPEVCSEQDELDFLMEALIISKFNHQNIVRCIGVSLQSLPRFILLELMAGGDLKSFLRETRPRPSQPSSLAMLDLLHVARDIACGCQYLEENHFIHRDIAARNCLLTCPGPGRVAKIGDFGMARDIYRASYYRKGGCAMLPVKWMPPEAFMEGIFTSKTDTWSFGVLLWEIFSLGYMPYPSKSNQEVLEFVTSGGRMDPPKNCPGPVYRIMTQCWQHQPEDRPNFAIILERIEYCTQDPDVINTALPIEYGPLVEEEEKVPVRPKDPEGVPPLLVSQQAKREEERSPAAPPPLPTTSSGKAAKKPTAAEISVRVPRGPAVEGGHVNMAFSQSNPPSELHKVHGSRNKPTSLWNPTYGSWFTEKPTKKNNPIAKKEPHDRGNLGLEGSCTVPPNVATGRLPGASLLLEPSSLTANMKEVPLFRLRHFPCGNVNYGYQQQGLPLEAATAPGAGHYEDTILKSKNSMNQPGP
partner: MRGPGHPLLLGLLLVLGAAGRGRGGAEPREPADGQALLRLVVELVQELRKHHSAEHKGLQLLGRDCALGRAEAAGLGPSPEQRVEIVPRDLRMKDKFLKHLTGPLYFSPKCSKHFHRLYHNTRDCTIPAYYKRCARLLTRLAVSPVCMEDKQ

Variants of: B1
Details: with alkl2_human ALKAL2, Q6UX46

effect of a mutation on the interaction | Variant
disrupting interaction strength | G823D
disrupting interaction strength | G934D
disrupting interaction strength | G740D
disrupting interaction strength | G893E
